From the RNAGym collection of RNA variant scans (doi:10.1093/molbev/msab373) come the findings set out here.

B1: Azoarcus group I ribozyme (parent)
chain: GUGCCUUGCGCCGGGAAACCACGCAAGGGAUGGUGUCAAAUUCGGCGAAACCUAAGCGCCCGCCCGGGCGUAUGGCAACGCCGAGCCAAGCUUCGGCGCCUGCGCCGAUGAAGGUGUAGAGACUAGACGGCACCCACCUAAGGCAAACGCUAUGGUGAAGGCAUAGUCCAGGGAGUGGCGAAAGUCACACAAACCGG

The variants in the data set derive from B1. In words: reverse-splicing fitness (ratio to wild type); higher = more active; in vitro selection; Mg2+ level not given. Summed up:
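An in vitro group I ribozyme library with randomized positions was T7-transcribed and gel-purified. In triplicate, 10 pmol RNA in EPPS pH 7.5 was reacted with 50 pmoles of a 30-nt RNA substrate for 1 h at 37 °C across several added MgCl2 levels (1–48 mM), then stopped with EDTA. Products were reverse transcribed from a substrate-complementary primer, PCR-amplified and sequenced (HiSeq 4000). Fitness is a variant's read proportion after selection over that before, normalised to wild type.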
As for C82G A120C A145G C150U C169A U176G, the reverse-splicing fitness is 0.0065.
With C82G A120C A145G C150U C169A U176C, the reverse-splicing fitness turned out to be 0.0158.
To C82G A120C A145G C150U C169A U176A belongs 0.0194; to C82G A120C A145G C150A U176A, 0.0196.
Take C82G A120C A145G C150A U176C: the reverse-splicing fitness was 0.034.
As to C82G A120C A145G C150A U176G, the reverse-splicing fitness was 0.0102.
As for C82G A120G A145G C150U C169U, the reverse-splicing fitness turned out to be 0.0236.
To C82G A120G A145G C150U C169G belongs 0.04; to C82G A120G A145G C150U C169A, 0.0266; to C82G A120G A145G C150A C169U, 0.011.
In the case of C82G A120G A145G C150A C169G, the reverse-splicing fitness came out at 0.0133.
As for C82G A120G A145G C150A C169A, the reverse-splicing fitness is 0.0126.
With C82G A120C A145G C169A U176A the figure was 0.0209; with C82G A120C A145G C169A U176G, 0.00477.
To C82G A120C A145G C169A U176C belongs 0.0247; to C82G A120C C169U, 0.0232; to C82G A120C C169A, 0.00902.
Turning to C82G A120C C169G, the reverse-splicing fitness came to 0.00817.
With C82G A120C A145U C169G the figure was 0.0068; with C82G A120C A145U C169U, 0.0247.
As for C82G A120C A145U C169A, the reverse-splicing fitness was 0.00673.
With C82G A120C A145U C150A C169U U176C the figure was 0.013; with C82G A120C A145U C150A C169U U176A, 0.0151.
To C82G A120C A145U C150A C169U U176G belongs 0.00492; to C82G A120C A145C C169U U176G, 0.00352; to C82G A120C A145C C169U U176A, 0.0152.
With C82G A120C A145C C169U U176C the figure was 0.0142.
For the variant C82G A120C C150A C169U, the reverse-splicing fitness turned out to be 0.0118.
With C82G A120C C150A C169A the figure was 0.0151; with C82G A120C C150A C169G, 0.00837; with C82G A120G A145G C150A C169A U176C, 0.0228.
To C82G A120G A145G C150A C169A U176G belongs 0.00618; to C82G A120G A145G C150A C169A U176A, 0.0199; to C82G A120C A145G C150G U176G, 0.00687.
Turning to C82G A120C A145G C150G U176C, the reverse-splicing fitness was 0.0168.
Turning to C82G A120C A145G C150G U176A, the reverse-splicing fitness worked out at 0.0102.
With C82G A120C A145G C150G the figure was 0.0242.
Consider C82G A120C A145G C150A, for which the reverse-splicing fitness was determined as 0.0297.
For the variant C82G A120C A145G C150U, the reverse-splicing fitness was 0.163.
To C82G A120G A145C C150A C169A U176G belongs 0.00483; to C82G A120G A145C C150A C169A U176C, 0.00516; to C82G A120G A145C C150A C169A U176A, 0.0119.
With C82G A120G A145G C150G C169A the figure was 0.0111; with C82G A120G A145G C150G C169U, 0.0109.
To C82G A120G A145G C150G C169G belongs 0.0108; to C82G A120C A145G C150A C169A U176A, 0.0227; to C82G A120C A145G C150A C169A U176C, 0.0236.
Consider C82G A120C A145G C150A C169A U176G, for which the reverse-splicing fitness turned out to be 0.00671.
As for C82G A120C A145G C150A C169G, the reverse-splicing fitness turned out to be 0.00895.
Take C82G A120C A145G C150A C169U: the reverse-splicing fitness amounted to 0.0126.
To C82G A120C A145G C150A C169A belongs 0.0104; to C82G A120C A145U C150U C169U U176C, 0.0148; to C82G A120C A145U C150U C169U U176G, 0.00456.
To C82G A120C A145U C150U C169U U176A belongs 0.0152.
To C82G A120C A145G U176A belongs 0.0722.
Take C82G A120C A145G U176G: the reverse-splicing fitness was found to be 0.0158.
C82G A120C A145G U176C: the reverse-splicing fitness came to 0.103.
To C82G A120G A145G C150A belongs 0.0107.
As for C82G A120G A145G C150G, the reverse-splicing fitness turned out to be 0.00886.
To C82G A120G A145G C150U belongs 0.0247; to C82G A120C A145U C150U C169G U176G, 0.0044; to C82G A120C A145U C150U C169G U176A, 0.0139.
Turning to C82G A120C A145U C150U C169G U176C, the reverse-splicing fitness is 0.015.
As to C82G A120G A145G C150U C169U U176G, the reverse-splicing fitness was 0.00473.
In the case of C82G A120G A145G C150U C169U U176C, the reverse-splicing fitness was 0.0187.
To C82G A120G A145G C150U C169U U176A belongs 0.0213.
Consider C82G A120C A145C C169U, for which the reverse-splicing fitness turned out to be 0.0218.
Take C82G A120C A145C C169A: the reverse-splicing fitness worked out at 0.00704.
To C82G A120C A145C C169G belongs 0.00864; to C82G A120C A145U C150G C169U U176C, 0.012; to C82G A120C A145U C150G C169U U176A, 0.00813.
To C82G A120C A145U C150G C169U U176G belongs 0.00547; to C82G A120G A145G C150G C169G U176G, 0.00567.
Consider C82G A120G A145G C150G C169G U176C, for which the reverse-splicing fitness worked out at 0.0129.
For the variant C82G A120G A145G C150G C169G U176A, the reverse-splicing fitness was found to be 0.0108.
Take C82G A120C A145G C169U U176C: the reverse-splicing fitness was 0.0174.
With C82G A120C A145G C169U U176A, the reverse-splicing fitness turned out to be 0.017.
With C82G A120C A145G C169U U176G the figure was 0.00453.
With C82G A120C A145U C150U C169U the figure was 0.0172; with C82G A120C A145U C150U C169A, 0.00933.
To C82G A120C A145U C150U C169G belongs 0.00838; to C82G A120G A145C C150G U176C, 0.00894.
Turning to C82G A120G A145C C150G U176A, the reverse-splicing fitness worked out at 0.00713.
With C82G A120G A145C C150G U176G, the reverse-splicing fitness is 0.00333.
